Data published in the supplement of paper PMC10567573.

B1: TBX5 (parent)
chain: YQNHKITQLKIENNPFAKGFRGSD

Variants of: B1
Experiment: protein stability index of a GFP-peptide fusion (GPS, HEK-293T) (PSI 1-6); higher = more stable
Details: c terminus: a fixed tail appended
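Further: lentivirally expressed fusions sorted by FACS into six bins by GFP to DsRed ratio, PSI derived from sequencing read proportions per bin multiplied by bin number.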

Protein stability index of substitutions, site by site:
T7: R 2.48, Y 2.37, C 1.94, M 2.21, I 2.5, E 3.32, S 2.46, Q 2.63, W 3.51, G 2.12, V 2.29, L 2.3, A 2.15, P 2.85, D 2.69, K 3.31, F 1.61, N 2.59, H 2.77
I6: D 3.53, E 3.16, Y 2.53, M 2.7, R 2.79, S 3.04, W 4.36, F 2.45, P 2.8, K 3.27, A 3.47, Q 2.98, G 2.3, H 2.83, N 3.09, T 3.06, L 2.45, V 2.4, C 2.36
G19: L 2.05, R 2.22, I 1.85, D 2.7, F 2.16, N 2.19, H 2.55, V 2.31, T 2.53, Q 3.1, W 1.88, P 2.85, E 3.99, C 1.74, A 2.75, K 2.59, S 2.76, Y 2.36, M 2.29
E12: V 1.91, C 1.73, N 2.51, Q 2.22, G 2.01, A 2.32, L 2.17, Y 1.69, R 1.98, D 2.94, F 1.7, T 2.75, P 2.63, I 1.81, W 1.49, S 2.11, M 2.35, K 1.84, H 2.3
R21: Q 2.57, A 2.32, Y 2.96, L 2.15, H 2.52, M 2.55, N 2.61, S 2.76, E 2.58, W 1.8, C 2.34, V 2.51, T 2.44, P 2.74, D 2.95, F 2.89, K 2.64, I 2.19, G 2.46
K18: T 1.67, D 2.16, G 1.81, P 2.54, M 2.06, W 1.63, F 1.7, V 2.07, A 2.24, S 2.31, L 2.06, N 2.23, Q 2.37, C 1.36, Y 2.12, I 2.49, R 2.77, H 2.09, E 3.08
N13: I 1.51, Q 2.55, A 2.17, K 2.34, Y 1.77, E 2.36, H 2.15, G 1.81, W 2.09, L 1.67, P 2.25, S 2.37, V 1.81, R 2.46, D 2.48, C 2.31, M 2.29, T 2.25, F 1.94
I11: R 2.71, W 2.34, E 3.23, P 2.71, D 3.27, H 2.33, Q 2.58, M 2.64, C 2.48, N 2.59, K 2.52, G 2.47, V 2.58, F 2.25, Y 2.83, L 2.62, S 2.96, A 2.36, T 2.71
K10: D 2.68, T 2.74, P 3.2, V 2.02, N 2.46, M 2.23, I 1.63, R 2.58, S 2.79, Q 2.5, Y 2.17, W 1.95, C 2.11, G 1.85, A 2.91, E 3.11, H 2.2, F 1.81, L 2.03
F20: L 2.79, W 2.73, V 2.63, K 3.11, E 3.56, Q 3.19, P 2.88, C 2.85, R 3.02, D 3.41, T 3.04, G 2.98, M 2.69, Y 2.49, I 2.47, S 3.23, N 3.28, H 3.27, A 3.41
F16: I 3, S 3.56, L 2.51, N 3.48, A 3.12, G 2.83, Y 2.46, Q 3.44, R 3.16, V 2.73, H 3.54, M 2.98, K 3.31, C 3.17, W 1.93, D 3.52, P 3.93, E 3.64, T 3.47
P15: S 2.7, F 1.96, I 2.04, R 2.35, W 1.87, D 3.34, N 2.7, L 2.08, V 2.38, H 2.35, Q 2.32, M 2.65, E 2.69, A 2.52, Y 2.34, T 2.82, G 2.37, C 2.34, K 2.33
Q8: K 2.28, E 2.97, G 2.73, V 2.49, C 1.91, Y 1.57, H 2.41, R 1.99, W 1.57, A 2.79, M 2.2, L 1.41, F 1.7, T 2.19, I 2.06, D 2.75, P 2.41, N 2.4, S 2.13
H4: P 2.58, Y 2.15, W 2.89, V 2.68, S 2.62, Q 2.66, T 2.44, R 2.77, N 2.87
L9: K 2.81, M 2.58, R 3.54, P 2.84, D 3.21, I 2.73, V 4.05, S 3.07, Y 2.31, N 3.01, W 1.71, A 2.83, G 2.35, Q 3.19, H 2.38, F 2.26, E 3.09, T 2.37, C 2.02
G22: A 2.37, C 2.24
A17: Y 2.18, Q 2.54, I 2.09, H 2.54, S 2.01, W 1.98, N 2.21, T 2.43, K 2.73, E 3.12, G 2.27, C 2.22, F 1.95, R 2.12, L 2.34, D 2.73, P 2.77, V 2.73, M 2.5
K5: D 3.06, A 2.7, E 2.98, F 1.84, N 2.59, I 1.51, L 2.18, R 2.38, H 2.03, W 2.64, M 2, V 2.44, Y 1.95, P 2.77, Q 2.81, C 2.15, T 2.44, S 2.21, G 2.57
N14: M 2.05, S 2.16, V 2.27, G 2.46, R 2.58, K 2.75, H 2.36, A 2.61, I 2.41, E 2.95, L 2.52, W 1.59, T 2.61, F 2.34, C 1.58, Y 1.89, Q 2.94, P 2.52, D 2.84
